Laboratory results published in patent publication US20030012792.

Biological target: alpha-1 antichymotrypsin (ACT, Sigma Chemical Co.) (UniProt P01011)
Sequence (P01011 24-423): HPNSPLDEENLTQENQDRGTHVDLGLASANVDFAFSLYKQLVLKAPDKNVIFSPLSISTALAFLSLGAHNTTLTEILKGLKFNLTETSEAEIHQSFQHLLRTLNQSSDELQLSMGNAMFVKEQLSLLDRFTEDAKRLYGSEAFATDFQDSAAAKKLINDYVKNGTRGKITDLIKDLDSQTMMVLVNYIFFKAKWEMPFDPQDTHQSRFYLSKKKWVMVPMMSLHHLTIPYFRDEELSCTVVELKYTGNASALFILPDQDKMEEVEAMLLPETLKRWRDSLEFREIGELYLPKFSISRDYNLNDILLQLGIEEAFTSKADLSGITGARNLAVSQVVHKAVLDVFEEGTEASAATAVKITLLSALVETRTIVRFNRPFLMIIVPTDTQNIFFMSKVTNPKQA

Human Prostate-Specific Antigen (purified human PSA, Vitro Diagnostics)
proteolytic (serine protease) activity of PSA on synthetic substrate S-2586, absorbance at 405 nm: preincubation of PSA with ACT blocked both serine protease activity of purified PSA (FIG. 11)
